Assay results reported in article PMC6938348 (PLoS ONE, 2019).

What was measured:
[1] = target: T1, Her2 on cells (SKOV3, JIMT-1, MCF7) (Homo sapiens (endogenous in SKOV3, …, UniProt P04626)); experiment: flow cytometry on cells; saturation binding of full-size antibodies on live high-Her2 SKOV3 cells, 4°C 2 h, 0 to 200 nM or 1 μM, washed, anti-human Fc AlexaFluor488-(Fab')2 detection; apparent KD; conditions: one partner purified
T1 construct: Her2 as it stands on the surface of live SKOV3 (high), JIMT-1 (low) and MCF7 (very low) cells; also called Her2 receptors; source: endogenous, on SKOV3, JIMT-1 and MCF7 cells

[2] = target: T1, Her2 on cells (SKOV3, JIMT-1, MCF7); experiment: cell-based or functional assay
soluble Her2 ectodomain [3] = target: T2, soluble Her2 ectodomain (Homo sapiens (assumed; species and …, UniProt P04626); experiment: SPR; antibody captured on an anti-hFc CM-5 surface, soluble Her2 ectodomain flowed (monovalent binding); single cycle kinetics in duplicate, 25°C, PBS with 3.4 mM EDTA and 0.05% Tween 20; 1:1 binding model; Biacore T200; conditions: both partners purified
T2 construct: Her2 ectodomain, soluble

[4] = target: T1, Her2 on cells (SKOV3, JIMT-1, MCF7); experiment: cell-based or functional assay; remark: listed apart in the source
soluble Her2 ectodomain [5] = target: T2, soluble Her2 ectodomain; experiment: SPR; antibody captured on an anti-hFc CM-5 surface, soluble Her2 ectodomain flowed (monovalent binding); single cycle kinetics in duplicate, 25°C, PBS with 3.4 mM EDTA and 0.05% Tween 20; 1:1 binding model; Biacore T200; conditions: both partners purified; remark: listed apart in the source
[6] = target: T1, Her2 on cells (SKOV3, JIMT-1, MCF7); experiment: flow cytometry on cells; saturation binding of full-size antibodies on live low-Her2 MCF7 cells, 4°C 2 h, 0 to 200 nM or 1 μM, washed, anti-human Fc AlexaFluor488-(Fab')2 detection; apparent KD; conditions: one partner purified

B1: bH1 full-size antibody (Parent 2) (antibody, V domains shown)
VH: not shown
VL: DIQMTQSPSSLSASVGDRVTITCRASQDIPRSISGYVAWYQQKPGKAPKLLIYWGSYLYSGVPSRFSGSGSGTDFTLTISSLQPEDFATYYCQQHYTTPPTFGQGTKVEIK
notes: heavy chain of bH1 (Parent 2) as full-size human IgG; light chain of bH1 (Parent 2), a Herceptin variant with a 4-residue insertion in CDR-L1 and a few point mutations; FSA; IgG1 is surmised (Synagis is called the IgG1 isotype control); also called 2–13; source: CHO-3E7, co-transfected, purified (MabSelect Sure); copies: 2 + 2
Kd [1]: 2.41 nM | IC50 of cytotoxicity, indirect ADC screen (DM1-conjugated secondary antibody), JIMT1 cells [2]: 7.4 nM | IC50 of cytotoxicity, indirect ADC screen (DM1-conjugated secondary antibody), MCF7 cells [2]: 8.2 nM | IC50 of cytotoxicity, indirect ADC screen (DM1-conjugated secondary antibody), SKOV3 cells [2]: 0.021 nM | IC50 of cytotoxicity, indirect ADC screen (MMAE-conjugated secondary antibody), JIMT1 cells [2]: 10.3 nM | IC50 of cytotoxicity, indirect ADC screen (MMAE-conjugated secondary antibody), MCF7 cells [2]: 35.6 nM | IC50 of cytotoxicity, indirect ADC screen (MMAE-conjugated secondary antibody), SKOV3 cells [2]: 0.078 nM | Kd (soluble Her2 ectodomain [3]): 14.7 nM | IC50 of cytotoxicity, antibody directly conjugated to DM1, SKOV3 cells [4]: 0.075 nM | IC50 of cytotoxicity, antibody directly conjugated to PNU, JIMT1 cells [4]: 0.5 nM | IC50 of cytotoxicity, antibody directly conjugated to PNU, MCF7 cells [4]: 2.02 nM | IC50 of cytotoxicity, antibody directly conjugated to PNU, SKOV3 cells [4]: 0.077 nM | koff (soluble Her2 ectodomain [5]): 0.000741 s⁻¹ | kon (soluble Her2 ectodomain [5]): 100000 M⁻¹ s⁻¹ | Kd [6]: 0.87 nM
